Sequences and labels used below:
B1: GST-Dyn1xA-PRR (dynamin 1xA proline-rich region, amino acids 746-864) [rat] / Amphiphysin 1 [rat (endogenous in rat brain synaptosomes)] (parent)
chain 1: NTTTVSTPMPPPVDDSWLQVQSVPAGRRSPTSSPTPQRRAPAVPPARPGSRGPAPGPPPAGSALGGAPPVPSRPGASPDPFGPPPQVPSRPNRAPPGVPSRSGQASPSRPESPRPPFDL
chain 2: MADIKTGIFAKNVQKRLNRAQEKVLQKLGKADETKDEQFEEYVQNFKRQEAEGTRLQRELRGYLAAIKGMQEASMKLTESLHEVYEPDWYGREDVKMVGEKCDVLWEDFHQKLVDGSLLTLDTYLGQFPDIKNRIAKRSRKLVDYDSARHHLEALQSSKRKDESRISKAEEEFQKAQKVFEEFNVDLQEELPSLWSRRVGFYVNTFKNVSSLEAKFHKEIAVLCHKLYEVMTKLGDQHADKAFSIQGAPSDSGPLRIAKTPSPPEEASPLPSPTASPNHTLAPASPAPVRPRSPSQTRKGPPVPPLPKVTPTKELQQENIINFFEDNFVPEINVTTPSQNEVLEVKKEETLLDLDFDPFKPDVTPAGSAAATHSPMSQTLPWDLWTTSTDLVQPASGGSFNDFTQPQDTSLFTMQTDQNMAETEQALPTEPQAEEPPTTAAAPTAGLDLGLEMEEPKEEAAIPPGTDAGETVGTEGSTGEEAEAEKAALPAGEGESPEGAKIDVESTELASSESPQAAELEAGAPQEKVIPSVVIEPASNHEGEEHQETTTGTETREATEDVAPQGPAGEKQELATEPTPLDSQAATPAPAGAVDASLSAGDAAQELPPGFLYKVETLHDFEAANSDELTLQRGDVVLVVPSDSEADQDAGWLVGVKESDWLQYRDLATYKGLFPENFTRHLE
B2: GST-Dyn1xA-PRR (dynamin 1xA proline-rich region, amino acids 746-864) [rat] / Endophilin A1 [rat (endogenous in rat brain synaptosomes)] (parent)
chain 1: B1 chain 1
chain 2: MSVAGLKKQFHKATQKVSEKVGGAEGTKLDDDFKEMERKVDVTSRAVMEIMTKTIEYLQPNPASRAKLSMINTMSKIRGQEKGPGYPQAEALLAEAMLKFGRELGDDCNFGPALGEVGEAMRELSEVKDSLDMEVKQNFIDPLQNLHDKDLREIQHHLKKLEGRRLDFDYKKKRQGKIPDEELRQALEKFDESKEIAESSMFNLLEMDIEQVSQLSALVQAQLEYHKQAVQILQQVTVRLEERIRQASSQPRREYQPKPRMSLEFATGDGTQPNGGLSHTGTPKPAGVQMDQPCCRALYDFEPENEGELGFKEGDIITLTNQIDENWYEGMLHGQSGFFPINYVEILVALPH

Variants of B1 are the subject of one assay. The experiment in a line: GST pull-down, densitometric analysis of Western blots. Particulars: with Amphiphysin 1 [rat (endogenous in rat brain synaptosomes)]; parent: 100; read off a plot. For orientation: A western blot detects proteins with antibodies after separation by electrophoresis.
For chain 1 NTTTVSTPMPPPVDDSWLQVQSVPAGRREPTSEPTPQRRAPAVPPARPGSRGPAPGPPPAGSALGGAPPVPSRPGASPDPFGPPPQVPSRPNRAPPGVPSRSGQASPSRPESPRPPFDL [chain 1 S29E S33E], the percent of parent was found to be 98%. For the variant chain 1 NTTTVSTPMPPPVDDSWLQVQSVPAGRRSPTSSPTPQRRAPAVPPARPGSRGPAPGPPPAGSALGGAPPVPSRPGASPDPFGPPPQVPSRPNRAPPGVPSRSGQAEPSRPEEPRPPFDL [chain 1 S106E S112E], the percent of parent was 91%.

Variants of B2 are the subject of the next assay. Described as above. Particulars: with Endophilin A1 [rat (endogenous in rat brain synaptosomes)]; parent: 100; read off a plot.
On to chain 1 S106E S112E, for which the percent of parent stood at 48%.

Consider chain 1 S29E S33E, for which the percent of parent stood at 31%.
